In patent US20150202250A1:

Target: isolated NS2B-NS3 protein complex from the DENV-2 viral genome (Dengue virus type 2 (DENV-2)) (UniProt P14340)
Assay: cell-based or functional assay

Sequence of UniProt P14340 (P14340 1394-1440 limits assumed, chain 1 of 2): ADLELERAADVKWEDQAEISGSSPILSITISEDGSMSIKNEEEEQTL
Sequence of UniProt P14340 (P14340 1476-1660 limits assumed, chain 2 of 2): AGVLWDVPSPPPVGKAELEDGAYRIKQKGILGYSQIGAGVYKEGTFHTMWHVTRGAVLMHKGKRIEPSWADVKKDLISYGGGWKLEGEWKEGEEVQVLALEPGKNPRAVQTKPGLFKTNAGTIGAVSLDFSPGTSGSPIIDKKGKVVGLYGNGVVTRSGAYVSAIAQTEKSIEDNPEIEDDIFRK

B1: RetroMAD1 (protein)
chain: MGRICRCICGRGICRCICGVPGVGVPGVGGATGSDVNFDLSTATAKTYTKFIEDFRATLPFSHKVYDIPLLYSTISDSRRFILLDLTSYAYETISVAIDVTNVYVVAYRTRDVSYFFKESPPEAYNILFKGTRKITLPYTGNYENLQTAAHKIRENIDLGLPALSSAITTLFYYNAQSAPSALLVLIQTTAEAARFKYIERHVAKYVATNFKPNLAIISLENQWSALSKQIFLAQNQGGKFRNPVDLIKPTGERFQVTNVDSDVVKGNIKLLLNSRASTADENFITTMTLLGESVVEFPWALWKTMLKELGTMALHAGKAALGAAADTISQGTQVPGVGVPGVGKLAAALEHHHHHH
  inhibition of NS2B-NS3 protease (cleavage of fluorogenic peptide substrate) (% inhibition at 10.8 µM): 94.3
